Target: Human interleukin-2 (IL-2) (human) (UniProt P60568)
Assay: SPR (BIAcore 3000), data not shown

Substance: oriented (Or) Fab'602: Fab' fragment of MAB602 biotinylated in the hinge region
- Kd: 0.1 nM

From patent US20070293659A1
